Source: patent US20190055547A1

Columns and labels:
Pak1 [1] = molecular target: Pak1 (UniProt Q13153); test: competitive phage ELISA IC50 compared with KD (~IC50) of primary-screen monobodies
Pak1 [2] = molecular target: Pak1 (UniProt Q13153); test: competitive phage ELISA: biotinylated Pak1 immobilised, varying non-biotinylated Pak1 mixed with phage displaying D3

fold improvement over the binding of the monobodies from the primary screen (Pak1 [1]): 1000 fold
IC50 (Pak1 [2]): 1.5 nM
B1: Clone D3 (designed binder, not shown: large carriers; small tags and cut ends)
chain: EQKLISEEDLMAVSDVPRKLEVVAATPTSLLISWDAPWKKTRYYRITYGETGGNSPVQEFTVPGSKSTATISGLKPGVDYTITVYAVTASWPWSKPISINYRTSGGGGSGGGGSGGGGSGGGGSGGGGSDYKDDDDKLASAMAVSDVPRKLEVVAATPTSLLISWDAPSRHIYYYRITYGETGGNSPVQEFTVPGSKSTATISGLKPGVDYTITVYAVTDLYSNSKPISINYRTS
